What was measured:
[1] = molecular target: T1, N-terminally His6-tagged cMyc-tagged human CCR1 (human, UniProt P32246 1-355); assay: cell-based or functional assay
T1 sequence (looked up): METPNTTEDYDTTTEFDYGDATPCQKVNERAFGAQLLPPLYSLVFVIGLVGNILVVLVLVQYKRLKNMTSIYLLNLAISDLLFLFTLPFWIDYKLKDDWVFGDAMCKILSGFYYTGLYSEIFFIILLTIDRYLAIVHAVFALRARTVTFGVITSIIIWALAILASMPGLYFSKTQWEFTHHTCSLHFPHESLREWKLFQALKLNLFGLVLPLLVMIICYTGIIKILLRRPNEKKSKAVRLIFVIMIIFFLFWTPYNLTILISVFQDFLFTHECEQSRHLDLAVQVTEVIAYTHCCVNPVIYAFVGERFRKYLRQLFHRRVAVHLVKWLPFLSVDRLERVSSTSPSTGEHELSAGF

[2] = molecular target: T1, N-terminally His6-tagged cMyc-tagged …; assay: cell-based or functional assay; remark: listed apart in the source
[3] = molecular target: T1, N-terminally His6-tagged cMyc-tagged …; assay: radioligand binding; competitive displacement of 50 pM 125I-CCL3 from membranes of Flp-In T-REx 293 cells expressing CCR1; 2 h at 37 °C; two sets of experiments (Table 1, Table 3); details: one partner purified
[4] = molecular target: T1, N-terminally His6-tagged cMyc-tagged …; assay: as above; details: one partner purified; remark: listed apart in the source

B1: CCL7 (ligand)
chain: not shown
notes: CCL7 (MCP-3), human, wild type; N-terminal region of ten residues before the CC motif; also called monocyte chemoattractant protein-3; MCP-3; not shown: His6, N-terminal, cleaved
[1]
  Gαi2 activation (BRET), EC50: 26.4 nM
  Gαi2 activation (BRET), pEC50: 7.6 -log M
[2]
  ERK1/2 phosphorylation, EC50: 9.6 nM
  ERK1/2 phosphorylation, pEC50: 8 -log M
  G protein activation (Gαi1, BRET), EC50: 14 nM
  G protein activation (Gαi1, BRET), pEC50: 7.9 -log M
  inhibition of forskolin-induced cAMP production, EC50: 9.5 nM
  inhibition of forskolin-induced cAMP production, pEC50: 8 -log M
[3]
  IC50: 1.2 nM
  pIC50: 8.9 -log M
[4]
  IC50: 0.33 nM
  pIC50: 9.5 -log M

B2: CCL8 (Lys-46 allele, Pro-8→Ala) (ligand, human, UniProt P80075 24-99, looked up)
chain: QPDSVSIAITCCFNVINRKIPIQRLESYTRITNIQCPKEAVIFKTKRGKEVCADPKERWVRDSMKHLDQIFQNLKP
notes: CCL8 (MCP-2), human, Lys-46 allele, with Pro-8→Ala to make the protein monomeric; N-terminal region of ten residues before the CC motif; also called MCP-2; not shown: His6, N-terminal, cleaved
[2]
  ERK1/2 phosphorylation, EC50: 65.5 nM
  ERK1/2 phosphorylation, pEC50: 7.2 -log M
  G protein activation (Gαi1, BRET), EC50: 30 nM
  G protein activation (Gαi1, BRET), pEC50: 7.5 -log M
  inhibition of forskolin-induced cAMP production, EC50: 48 nM
  inhibition of forskolin-induced cAMP production, pEC50: 7.3 -log M
[4]
  IC50: 2.3 nM
  pIC50: 8.6 -log M
